# Assay results published in article PMC9278990 (Nature structural & molecular biology, 2021).
# No end group written: not given here.
# Biological target: recombinant LDHA (human, UniProt P00338 1-332)
# Test: fluorescence polarisation
binder,measurement,value
"AQRMNTAFTP (peptide, UniProt Q8NFG4 219-228, looked up, also: rhodamine B label (position not given here)) [FLCN-10 peptide (aa 219-228), rhodamine B-labeled]",binding result,binds
